In US20240294650A1 (Alector, published 2024):

T1: Recombinant human MerTK-human Fc Chimera protein (human, UniProt Q12866 26-499, limits assumed)
T1 construct: bought construct; also called MerTK-Fc (R&D systems, Cat #391-MR-100)
T1 sequence: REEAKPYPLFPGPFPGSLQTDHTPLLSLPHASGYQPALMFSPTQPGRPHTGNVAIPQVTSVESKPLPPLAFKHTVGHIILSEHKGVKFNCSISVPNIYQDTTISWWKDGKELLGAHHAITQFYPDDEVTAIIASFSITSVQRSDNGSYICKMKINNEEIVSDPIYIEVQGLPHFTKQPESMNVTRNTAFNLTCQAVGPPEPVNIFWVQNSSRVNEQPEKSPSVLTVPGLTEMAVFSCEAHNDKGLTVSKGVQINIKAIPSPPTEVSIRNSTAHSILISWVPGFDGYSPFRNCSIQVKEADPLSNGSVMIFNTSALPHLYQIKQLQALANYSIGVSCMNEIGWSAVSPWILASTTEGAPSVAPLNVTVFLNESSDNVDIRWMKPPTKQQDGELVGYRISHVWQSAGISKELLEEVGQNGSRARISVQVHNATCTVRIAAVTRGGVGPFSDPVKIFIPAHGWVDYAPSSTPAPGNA

T2: mouse MerTK overexpressed on CHO cells (mouse, UniProt Q60805 19-994)
T2 construct: whole, on cells; also called CHO-muMerTK OE
T2 sequence (looked up): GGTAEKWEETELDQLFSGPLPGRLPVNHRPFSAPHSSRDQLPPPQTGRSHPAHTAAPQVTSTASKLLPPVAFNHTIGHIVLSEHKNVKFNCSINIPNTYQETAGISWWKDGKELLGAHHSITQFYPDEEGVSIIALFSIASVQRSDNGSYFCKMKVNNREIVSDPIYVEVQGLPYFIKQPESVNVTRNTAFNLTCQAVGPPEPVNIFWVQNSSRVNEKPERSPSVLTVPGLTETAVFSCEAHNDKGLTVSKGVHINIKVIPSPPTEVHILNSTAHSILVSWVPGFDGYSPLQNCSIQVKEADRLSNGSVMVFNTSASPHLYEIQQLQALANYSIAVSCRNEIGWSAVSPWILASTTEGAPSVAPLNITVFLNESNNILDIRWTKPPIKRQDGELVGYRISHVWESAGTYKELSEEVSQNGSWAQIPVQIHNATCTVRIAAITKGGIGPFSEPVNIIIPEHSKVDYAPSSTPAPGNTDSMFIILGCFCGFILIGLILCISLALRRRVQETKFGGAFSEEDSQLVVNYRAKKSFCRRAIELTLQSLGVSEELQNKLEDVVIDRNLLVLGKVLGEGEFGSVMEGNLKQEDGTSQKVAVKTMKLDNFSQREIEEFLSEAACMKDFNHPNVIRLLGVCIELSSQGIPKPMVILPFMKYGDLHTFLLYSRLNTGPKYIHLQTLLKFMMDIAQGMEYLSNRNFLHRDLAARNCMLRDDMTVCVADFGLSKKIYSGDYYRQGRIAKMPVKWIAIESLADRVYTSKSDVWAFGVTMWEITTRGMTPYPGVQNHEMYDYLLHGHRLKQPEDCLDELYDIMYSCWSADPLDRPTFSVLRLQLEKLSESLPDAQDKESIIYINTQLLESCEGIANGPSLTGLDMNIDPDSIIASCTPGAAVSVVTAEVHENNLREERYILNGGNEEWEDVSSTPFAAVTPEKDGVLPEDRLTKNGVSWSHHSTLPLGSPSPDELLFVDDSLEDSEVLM


Legend:
[1] = target: T1, Recombinant human MerTK-human Fc …; assay: blocking ELISA, ProS-His on MerTK-Fc, Ab 66.6 nM, isotype=100%
Method: (§1) Briefly, rabbit anti-human IgG antibody (Jackson ImmunoResearch, Cat #309-005-008) was coated at 2 μg/ml onto high-protein binding plates at 4° C. overnight. After washing with 0.05% Tween20 in PBS three times, 5% BSA in PBS was added for 1 hour. Recombinant human MerTK-human Fe Chimera protein (R&D systems, Cat #391-MR-100) was added at 2 μg/ml for 1 hour and plates were washed before the addition of 40 μl of anti-MerTK hybridoma supernatants and 40 μl of His tag-conjugated recombinant Gas6 (R&D systems, Cat #885-GSB-050) at 3 μg/ml or His tag-conjugated recombinant ProS (R&D systems, Cat #9489-PS-100) at 20 μg/ml. After a further incubation for 1 hour, plates were washed and incubated for 1 hour with HRP-conjugated anti-6×His tagged antibody (Abcam, Cambridge, MA, Cat #ab1187). Plates were then washed and an HRP substrate, TMB, was added to develop the plates. The reaction was stopped by adding 50 μl 2N H₂SO₄ and the OD was measured using a spectrophotometer (BioTek).
(§2) Anti-MerTK antibodies were titrated to a final concentration from 66.6 nM to 4 pM and tested against anti-human MerTK antibody M6 (disclosed in WO2016/106221) or isotype control antibody.

[2] = target: T2, mouse MerTK overexpressed on CHO cells; assay: FACS, CHO-muMerTK OE cells, 10 ug/ml
Method: To determine whether recombinant anti-human MerTK antibodies of the present disclosure bind to human MerTK endogenously expressed on SK-MEL-5 cells and CHO cells overexpressing mouse MerTK (CHO-muMerTK OE cells), as compared to A375 and parental CHO cells as negative controls, the following experiments were performed. SK-MEL-5 cells, A375 cells, CHO-muMerTK OE cells, and CHO parental cells were plated at 100,000 cells/well. Anti-MerTK antibodies were added to the cells at 10 μg/ml. After 60 minutes on ice, cells were washed and then stained with PE-conjugated goat anti-human IgG antibody (Southern Biotech Cat #2040-09, Birmingham, AL) in the presence of Fc block solution on ice for 30 minutes, and then washed twice with cold FACS buffer (2% FBS in PBS). Mouse anti-human MerTK-PE conjugated (Biolegend, Clone 590H11G1E3) or anti-mouse MerTK-PE conjugated (ThermoFisher, Clone DS5MMER) antibodies were used as positive controls. Stained cells were acquired on a BD FACS Canto II cytometer and the mean fluorescence intensity (MFI) was calculated with FlowJo.

[3] = target: T1, Recombinant human MerTK-human Fc …; assay: blocking ELISA, Gas6-His on MerTK-Fc, Ab 66.6 nM, isotype=100%
Method: as §1, §2

Percent ProS ligand binding [1] | MFI [2] | Percent Gas6 ligand binding [3] | Binder
117% | 2000 MFI | 98.9% | MTK-229 (antibody, human IgG1, V domains shown) VH: QVQLQQSGPELVKPGASVKISCKASGYEFSRSWMNWVKQRPGKGLEWIGRIYPGDGDTNYKGKLKGQATLTADKSSSTAYMQLSSLTFEDSAVYFCARGGGYYYDSRYEGFVYWGQGTVVTVSA VL: QIVLTQSPAIMSASPGEEVTMTCSASSSVSYMHWYQQKSGTSPKRWIYDTSKLASGVSGRFSGSGSGTSYSLTISSMEAEDAATYYCQQWSSNPPITFGAGTKLELK
106% | 5160 MFI | 115% | MTK-211 (antibody, human IgG1, V domains shown) VH: QVQLQQSGAELMKPGASVKLSCKATGYTFTGYWIEWVKQRPGHGLEWIGEILPGSGGSNYNEKFKGKATFTADTSSNTAYIQLSSLTTEDSAIYCCARGEPSYFSDAGFAYWGQGTLVTVSA VL: QIVLTQSPAVMSASPGEKVTMTCSASSSITYMHWYQQKPGTSPKRWIYDTSKLASGVPARFSGSGSGTSYFLTISSMEAEDVATYYCHQRSTYPYTFGGGTKLEIM
45.8% | 12800 MFI | 122% | MTK-212 (antibody, human IgG1, V domains shown) VH: QVQLQQSGPELVKPGASVKISCKASGYAFSSSWVNWVKQRPGKGLEWIGRIYPGDGDSNYNGNFKGKATLTADKSSNTAYLQLSSLTSEDSAVYFCARKSHFIYYTLDYWGQGTPVTVSS VL: DIVMTQSHKFKSTSVGDRVSIACKASQDVGTSVAWYQQKPGKSPKLLIYWASSRHTGVPDRFTGSGSGTDFTLTISNVQSEDLTDYFCQQYSTYPYTFGGGTKLEIK
100% | 11400 MFI | 106% | MTK-219 (antibody, human IgG1, V domains shown) VH: QVQLQQSGADLMKPGASVKLSCKATGNTFTGYWIEWVKQRPGHGLEWIGEILTGSGSTNYNERFKGKATFTADTSSNTAYMQLSSLTTEDSAIYYCAGSYFTNSWFPYWGQGSLVTVSA VL: DIVLTQSPASLAVSLGQRATISCRASESVDSYGNSFMHWYQQKPGQPPKLLIYRAYTLESGIPARFSGSGSRTDFTLTINPVEADDVATYYCQQSNEDPRTFGGGTKLEIK
88.2% | 4760 MFI | 105% | MTK-222 (antibody, human IgG1, V domains shown) VH: QVQLQQSGADLMKPGASVKLSCKATGYTFTGYWIEWVKQRPGHGLEWIGEILTGSGSSNYNEKFKGKATFTADSSSNTAFMQLSSLTTEDSAIYYCAGSYYSNSWFPYWGQGSLVTVSA VL: DIVLTQSPVSLAVSLGQRATISCRASESVDSYGSSFMHWYQQKPGQPPKLLIYRASSLESGIPARFSGSGSRTDFTLTINPVETDDVATYYCQQSNEDPRTFGGGTKLEIK
43.2% | 12800 MFI | 102% | MTK-213 (antibody, human IgG1, V domains shown) VH: QVQLQQPGAELVKPGASVKMSCKASGYTFTSYWITWVKQRPGQGHEWIGEIYPGIGSTNYNEKFKSKATLTVDTSSRTAYMQLSSLTSEDSAVYFCARGAYTKYYFDYWGQGTTLTVSS VL: DIVMTQSHKFMSTSVGDRVSITCKASQDVGDAVAWYQQKPGQTPKLLIYWASTRHTGVPDRFTGSGSGTDFTLTISNVQSEDLADYFCQQYSSYLMYTFGGGTKLEIK
152% | 594 MFI | 116% | MTK-231 (antibody, human IgG1, V domains shown) VH: DVQLQESGPGLVKPSQSLSLTCSVTGYSITSGYYWNWIRQFPGNKLEWMGYISYDGTYNYHPSLKNRISITRDTSKNQFFLTLNSVTTEDTATFYCTRGGGYWGQGTSVTVSS VL: DVVMTQTPLSLPVSLGDQASISCRSSQSLVHSDGNTYLHWYLQKPGQSPKLLIYKVSNRFSGVPDRFSGSGSGTDFTLKISRLEAEDLGIYFCSQTTHIPLTFGSGTKLEIK
116% | 252 MFI | 114% | MTK-210 (antibody, human IgG1, V domains shown) VH: QVQLQQSGPELVKPGASVKISCKASDYEFSRSWMNWVKQRPGKGLEWIGRIYPGDGDTNYNGKFKGKATLTADKSSNTAYMQLNSLTSEDSAVYFCARKGGYYYSISNYFDYWGQGTTLTVSS VL: QIVLTQSPAIMSASPGVKVTMTCSASSSVSYMHWYQQKPGSSPRLLIYDTSNLASGVPVRFSGSGSGTSYSLTISRMEAEDAATYYCQQWSSYPPYTFGGGTKLEIK
63.4% | 5800 MFI | 97% | MTK-220 (antibody, V domains shown) VH: EVQLVESGGGLVKPGGSLKLSCAASGFTFSDYGMHWVRQAPEKGLEWVAFISGGSGTIYYEDTVKGRFTISRDNAKNTLFLQMTSLRSEDTAMYYCTRGGNYFDYWGQGTTLTVSS VL: NIMLTQSPSSLAVSAGEKVTMTCKSSQSVLYSSNQKNYLAWYQQKPGQSPKLLIYWASTRESGVPDRFTGSGSGTDFTLTISNVQAEDLAVYYCHQYFSSWTFGGGTKLEIK
101% | 713 MFI | 121% | MTK-204 (antibody, human IgG1, V domains shown) VH: EVQLVESGGGLVKPGGSLKLSCAASGFTFSDYGMHWVRQAPEKGLEWVAYISSGTSTIYYEDTVKGRFTISRDNAKNTLFLQMTSLRSEDTAMYYCARGGLLFDYWGQGTTLTVSS VL: NIMMTQSPSSLAVSAGEKVTMSCKSSQSVLYSSNQKNYLAWYQQKPGQSPKLLIQWASTRESGVPDRFTGSGSETDFTLTIRSVQAEDLAVYYCHQYFSSWTFGGGTKLEIK
53.4% | 4410 MFI | 101% | MTK-202 (antibody, human IgG1, V domains shown) VH: EVQLVESGGGLVKPGGSLKLSCAASGFTFSDFGMHWVRQVPEKGLEWVAFISGGSNTIYYTDTVKGRFTISRDNAKNTLFLQMTSLRSEDTAMYYCVRNGNSFAYWGQGTLVTVSA VL: NIMMTQSPSSLAVSAGEKVTMNCKSSQSVLYSSNQKNYLAWYQQKPGQSPKLLIYWASTRESGVPDRFTGSGSGTDFTLTISNIQAEDLAIYYCHQYFFSWTFGGGTKLEIK
